B1: anti-human SAS1B murine monoclonal antibody SB4 (antibody, IgG2a, V domains shown)
VH: EVQLQQSGPELVKPGSSVKISCKPSGYTFTDYNMVWMKQSHGKSLEWIGAINPNNGGTTYNQKFKGKATLTVDKSSSTAYMELRSLTSEDSAVYYCAPNWDWFAYWGQGTLVTVSA
VL: DVLMTQTPLSLPVSLGDQASISCRSSQSILHSNGNTYLEWYLQKPGQSPKLLIYKVSNRFSGVPDRFSGSGSGTDFTLKISRVEAEDLGVYYCFQGSHVPFTFGSGTKLEIK
notes: Mouse hybridoma antibody, isotype IgG2a-k; also called SB4 mAb
B2: anti-human SAS1B murine monoclonal antibody SB2 (antibody, IgG2b, V domains shown)
VH: B1 VH with P24A, M37V, I51V, T59S, A97V
VL: B1 VL with I29L, L30V, K50N
notes: also called SB2 mAb
B3: anti-human SAS1B murine monoclonal antibody SB5 (antibody, IgG2b, V domains shown)
VH: B1 VH
VL: B1 VL with T7I
notes: Mouse hybridoma antibody, isotype IgG2b-k; also called SB5 mAb
B4: anti-human SAS1B murine monoclonal antibody SB1 (antibody, IgG2a, V domains shown)
VH: EVQLQQSGPELVKPGSSVKISCKASGYTFTDYNMDWVKQSHGKSLEWIGAINPNNGGTSYNQKFKGKATLTVDKSSSTAYMELRSLTSEDSAVYYCATNEYWGQGTTLTVSS
VL: NIVMTQSPKSMSMSVGERVTLSCKASENVGTYVSWYQQKPEQSPKLLIYGASNRYTGVPDRFTGSGSATDFTLTISSVQAEDLADYHCGQSYSYPWTFGGGTKLEIK
notes: also called SB1 mAb
B5: anti-human SAS1B murine monoclonal antibody SB7 (antibody, IgG2b, V domains shown)
VH: B1 VH
VL: B1 VL with T7I
B6: anti-human SAS1B murine monoclonal antibody SB3 (antibody, IgG2b, V domains shown)
VH: B1 VH with P24A, M37V, I51V, T59S, A97V
VL: B1 VL with I29L, L30V, K50N
notes: also called SB3 mAb
B7: anti-human SAS1B murine monoclonal antibody SB6 (antibody, IgG2b, V domains shown)
VH: B1 VH
VL: B1 VL with T7I

Results on seven molecules are retold here after patent US20190194345A1 (UNIVERSITY OF VIRGINIA PATENT FOUNDATION, published 2019).

Where a chain is given by its changes, count along the chain named.

For the first experiment, the target named is T1, SAS1B on the surface of live cancer cells (human, UniProt Q6HA08 24-431).
T1 sequence: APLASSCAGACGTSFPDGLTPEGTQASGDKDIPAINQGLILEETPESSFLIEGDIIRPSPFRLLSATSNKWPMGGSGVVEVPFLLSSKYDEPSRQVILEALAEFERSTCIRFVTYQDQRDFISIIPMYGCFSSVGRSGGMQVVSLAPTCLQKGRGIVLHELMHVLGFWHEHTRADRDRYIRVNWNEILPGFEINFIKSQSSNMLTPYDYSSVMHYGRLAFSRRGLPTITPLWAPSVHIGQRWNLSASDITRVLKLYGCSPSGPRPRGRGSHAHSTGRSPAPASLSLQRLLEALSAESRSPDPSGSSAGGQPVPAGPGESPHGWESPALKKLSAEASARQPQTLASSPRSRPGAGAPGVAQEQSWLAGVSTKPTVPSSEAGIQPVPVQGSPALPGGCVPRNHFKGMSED
Put plainly: cell-based or functional assay.
As to B1, the “percent of cells killed at 0.1 nM mAb, ADC assay with anti-mouse Fab-cleavable-Duocarmycin, pancreatic cancer cells 366, ~72 h, cellular ATP” value (“percent of cells killed at 0.1 nM mAb” for short) was determined as 33%; the “percent of cells killed at 1 nM mAb, ADC assay with 15 nM anti-mouse Fab-cleavable-Duocarmycin, MPanc96 pancreatic cancer cells, ~72 h, cellular ATP” value amounted to 64%; the “percent of cells killed at 1 nM mAb, ADC assay with anti-mouse Fab-cleavable-Duocarmycin, pancreatic cancer cells 366, ~72 h, cellular ATP” value was 77%.

With B2, the “percent of cells killed at 0.1 nM mAb” value is 59%; the “percent of cells killed at 1 nM mAb, ADC assay with 15 nM anti-mouse Fab-cleavable-Duocarmycin, MPanc96 pancreatic cancer cells, ~72 h, cellular ATP” value is 80%; the “percent of cells killed at 1 nM mAb, ADC assay with anti-mouse Fab-cleavable-Duocarmycin, pancreatic cancer cells 366, ~72 h, cellular ATP” value came to 88%; the viability (usually a read-out of living cells in per cent, often relative to untreated cells) at 0.01 nM mAb, ADC assay with Fab-anti-mouse IgG Fc conjugated to Duocarmycin DM (cleavable linker), uterine cancer cells was 66%.

As for B3, the “percent of cells killed at 0.1 nM mAb” value was 49%; the “percent of cells killed at 1 nM mAb, ADC assay with 15 nM anti-mouse Fab-cleavable-Duocarmycin, MPanc96 pancreatic cancer cells, ~72 h, cellular ATP” value came out at 57%; the “percent of cells killed at 1 nM mAb, ADC assay with anti-mouse Fab-cleavable-Duocarmycin, pancreatic cancer cells 366, ~72 h, cellular ATP” value worked out at 76%; the “viability at 0.01 nM mAb, ADC assay with Fab-anti-mouse IgG Fc conjugated to Duocarmycin DM (cleavable linker), uterine cancer cells” value is 87%.

The target in a further experiment is T2, SAS1B C-terminus extracellular domain (aa 160-431) (human, UniProt Q6HA08 160-431).
T2 construct: also called C-term extracellular domain
T2 sequence: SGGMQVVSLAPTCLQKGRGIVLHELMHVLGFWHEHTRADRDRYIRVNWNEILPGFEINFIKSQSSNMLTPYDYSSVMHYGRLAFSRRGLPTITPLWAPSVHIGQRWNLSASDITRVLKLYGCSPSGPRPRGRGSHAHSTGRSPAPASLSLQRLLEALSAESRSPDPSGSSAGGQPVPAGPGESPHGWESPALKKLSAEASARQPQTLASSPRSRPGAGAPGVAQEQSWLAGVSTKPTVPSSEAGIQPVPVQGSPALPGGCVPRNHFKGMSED
Put plainly: western blot (FIG. 22).
On to B4, for which the binding result was “no binding”.

Turning to B1, the binding result is “no binding”.

In the case of B5, the binding result is listed as “no binding”.

B2: the binding result was “no binding”.

For the molecule B3, the binding result is “no binding”.

For the molecule B6, the binding result was “no binding”.

In the case of B7, the binding result is “no binding”.

The next experiment deals with T3, mouse SAS1B (mouse, UniProt Q6HA09 24-435, limits assumed).
T3 sequence (looked up): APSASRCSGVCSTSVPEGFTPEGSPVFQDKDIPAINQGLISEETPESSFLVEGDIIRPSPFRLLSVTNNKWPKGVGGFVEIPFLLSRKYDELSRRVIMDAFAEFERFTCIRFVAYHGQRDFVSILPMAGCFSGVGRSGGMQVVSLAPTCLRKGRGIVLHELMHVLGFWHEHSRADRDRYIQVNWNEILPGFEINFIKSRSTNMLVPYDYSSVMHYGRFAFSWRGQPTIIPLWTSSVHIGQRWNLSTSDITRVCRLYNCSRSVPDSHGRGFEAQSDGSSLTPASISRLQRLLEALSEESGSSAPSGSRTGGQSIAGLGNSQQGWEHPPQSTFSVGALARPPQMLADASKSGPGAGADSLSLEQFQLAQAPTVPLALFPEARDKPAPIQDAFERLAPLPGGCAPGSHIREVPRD
Kind of experiment: summary table (Table 1).
With B1, the binding result was “no binding”.

Regarding B5, the binding result is “no binding”.

On to B2, for which the binding result is recorded as “no binding”.

For B3, the binding result is “no binding”.

Turning to B6, the binding result is listed as “no binding”.

In the case of B7, the binding result is “no binding”.

The target of another experiment is T4, SAS1B extracellular domain (aa 164-431) polypeptide (human, UniProt Q6HA08 164-431).
T4 construct: mammalian cell-expressed recombinant; also called truncated SAS1B
T4 sequence: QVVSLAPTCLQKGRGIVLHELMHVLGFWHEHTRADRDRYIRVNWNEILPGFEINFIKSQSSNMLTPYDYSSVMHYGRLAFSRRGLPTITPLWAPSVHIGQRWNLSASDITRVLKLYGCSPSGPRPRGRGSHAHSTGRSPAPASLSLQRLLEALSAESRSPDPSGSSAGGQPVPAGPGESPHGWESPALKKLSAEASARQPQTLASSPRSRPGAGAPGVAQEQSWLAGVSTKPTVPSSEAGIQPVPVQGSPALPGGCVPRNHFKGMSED
Put plainly: western blot, mammalian cell-expressed recombinant SAS1B. As for the experimental part: SAS1B monoclonal antibodies were analyzed with mammalian cell-expressed recombinant SAS1B by western blotting.
Background: A western blot detects proteins with antibodies after separation by electrophoresis.
Take B4: the binding result is reported as “no binding”.

As to B1, the binding result was “no binding”.

As to B5, the binding result is given as “no binding”.

Turning to B2, the binding result is given as “no binding”.

Consider B3, for which the binding result is listed as “no binding”.

B6: the binding result is “no binding”.

As for B7, the binding result was “no binding”.
